“Also recorded” adds a separate entry of the source. Where two headings read alike, the source gives them in different places. One block for each molecule: values may come before it.
Key:
O-Mad2 R133A = molecular target: T1, O-Mad2 R133A (Homo sapiens, UniProt Q13257, R133A); assay: NMR-monitored conversion of O-Mad2 to C-Mad2; assay type: biochemical; details: for O-Mad2 to C-Mad2 conversion: substoichiometric 2 µM Cdc20MIM (1:50) to 100 µM O-Mad2 R133A
T1 construct: made in house
Method: (§1) The following protein concentrations were used in NMR studies: ^1H,^15N HSQC of Mad1^CTD were collected with a 100 µM sample, whereas a 50 µM sample was used for titrations with Cdc20^N and Cdc20^α1. Cdc20^Box1 peptide was added at mM concentrations to minimise dilution during titration. […] Mad1^CTD was concentrated to 3 mM for titrations into Cdc20^N. ^1H,^15N HSQC of Mad2 were collected at 100 µM. All Mad2 NMR samples contain an R133A mutation to prevent Mad2 dimerisation. The C-Mad2 sample additionally contains an L13A mutation which favours the C-Mad2 state. Cdc20^MIM-bound C-Mad2 sample was prepared by adding a 1:2 excess of Cdc20^MIM peptide to an O-Mad2 sample with R133A mutation. To follow the O-to-C conversion of Mad2, the samples were prepared on ice and monitored using BEST ^1H,^15N-TROSY HSQC. The spectra were acquired with 16 scans and a recycle delay of 400 msec, giving an experimental time of 12 min per spectrum.
(§2) Mad1^CTD and Mad2 experiments were performed using an in-house 800 MHz Avance III spectrometer and Cdc20^N experiments were performed using an in-house 700 MHz Avance II + spectrometer, both equipped with triple resonance TCI CryoProbes. To retrieve signals that suffer from exchange broadening, we also utilised the Bruker 950 MHz Avance III spectrometer located at MRC Biomedical NMR Centre (Francis Crick Institute). Mad1^CTD and Mad2 spectra were collected at 298 K. Cdc20^N spectra were collected at 278 K to minimise exchange broadening for the largely disordered Cdc20^N.

[1] = molecular target: T2, Mad1CTD (unphosphorylated) (Homo sapiens, UniProt Q9Y6D9); assay: 1H,15N HSQC / CON NMR titration with unphosphorylated Mad1CTD; assay type: binding; details: peptide titration, 298 K
T2 construct: the C-terminal domain of Mad1 (residue 597–718); made in house
T2 sequence (Q9Y6D9 597-718): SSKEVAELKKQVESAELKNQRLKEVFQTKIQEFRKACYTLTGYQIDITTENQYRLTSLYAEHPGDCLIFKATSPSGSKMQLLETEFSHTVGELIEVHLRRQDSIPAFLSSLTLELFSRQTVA
Method: (§3) Uniformly-labelled proteins were expressed in M9 minimal media (6 g/L Na2HPO4, 3 g/L KH2PO4, 0.5 g/L NaCl) supplemented with 1.7 g/L yeast nitrogen base without NH4Cl and amino acids (Sigma Y1251). 1 g/L ^15NH4Cl and 4 g/L unlabelled glucose were supplemented for ^15N labelling. For ^13C/ ^15N double-labelled samples, unlabelled glucose was replaced with 3 g/L ^13C-glucose. Prior to all NMR experiments, proteins were dialysed into 20 mM HEPES, pH 7.0, 100 mM NaCl and 1 mM TCEP.
The following protein concentrations were used in NMR studies: ^1H,^15N HSQC of Mad1^CTD were collected with a 100 µM sample, whereas a 50 µM sample was used for titrations with Cdc20^N and Cdc20^α1. […] To follow the O-to-C conversion of Mad2, the samples were prepared on ice and monitored using BEST ^1H,^15N-TROSY HSQC. […]
(§4) For binding studies, the relative peak intensities were normalised to the C-terminal residue Ala718 of Mad1^CTD or Gly73 of Cdc20^N and expressed as PIbound/PIfree, with PIfree and PIbound being the peak heights of the free and bound forms, respectively. Weighted chemical shift perturbations were calculated using the equation[63]: Δδ = [(ΔδHNWHN)^2 + (ΔδNWN)^2)^2]^1/2 where ΔδHN and ΔδN are the chemical shift perturbations in ^1H and ^15N dimensions respectively. The weight factors were determined from the average variances of chemical shifts in the BMRB database, where WHN = 1 and WN = 0.16.

pMad1CTD = assay: 1H,15N HSQC / CON NMR titration with pMad1CTD; assay type: binding, human; details: peptide titration, 298 K
Method: as §3, §1, §2, §4

Cdc20 = details: cited from earlier work
Text: NMR spectroscopy was used to obtain structural insights into the Cdc20^N:Mad1^CTD interaction. Unlabelled Cdc20^N was titrated into either ^15N-labelled Mad1^CTD or pMad1^CTD (Fig. 2c, d and Supplementary Fig. 3a, b). […] Similar to Bub1^CD1, the interaction of Cdc20 α1 with Mad1^CTD would largely be driven by hydrophobic interactions (Fig. 4e). This model predicts that Gln3 and Glu7, and Asp9 of Cdc20 α1 interact with Arg617 and Lys619, respectively of the Mad1^CTD RLK motif (Fig. 4d). This is consi ...

[2] = molecular target: T3, preformed AF488-Bub1^CD1:pMad1^CTD complex (Mad1^CTD phosphorylated at Thr716) (UniProt Q9Y6D9 597-718, phosphothreonine at 716 (pThr716) | Aurora Fluor 488 (AF488) on the N-terminal Cys; phosphoserine (pSer459); phosphothreonine (pThr461)); assay: fluorescence polarisation; fluorescence anisotropy; Cdc20^N twofold series (100 μM to 6 nM, mixed 1:1) titrated into preformed AF488-Bub1^CD1:Mad1^CTD (20 nM: 2.1 µM); 25 mM HEPES pH 7.75, 1 mM TCEP, 100 mM NaCl, 0.05% Tween-20; 25 °C; details: both partners purified
T3 construct: Mad1 C-terminal domain (Mad1^CTD), residues 597-718; as m2; added N-terminal Cys (carries AF488) and Trp; as m7; Bub1 conserved domain 1 (CD1) peptide; source: mixed from purified pMad1^CTD and synthetic peptide (20 nM: 2.1 µM); copies: 2 + 1
T3 sequence 1: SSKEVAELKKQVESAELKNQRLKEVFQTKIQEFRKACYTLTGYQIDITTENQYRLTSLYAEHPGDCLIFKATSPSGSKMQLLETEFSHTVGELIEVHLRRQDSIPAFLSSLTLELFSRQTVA
T3 sequence 2: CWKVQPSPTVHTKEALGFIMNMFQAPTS

[3] = molecular target: T4, preformed AF488-Bub1^CD1:Mad1^CTD complex (Mad1^CTD unphosphorylated) (UniProt Q9Y6D9 597-718, Aurora Fluor 488 (AF488) on the N-terminal Cys; phosphoserine (pSer459); phosphothreonine (pThr461)); assay: as above; details: both partners purified
T4 construct: Mad1 C-terminal domain (Mad1^CTD), residues 597-718; as m1; added N-terminal Cys (carries AF488) and Trp; as m7; Bub1 conserved domain 1 (CD1) peptide; also called Mad1^CTD:AF488-Bub1^CD1 complex; source: mixed from purified Mad1^CTD and synthetic peptide (20 nM: 2.1 µM); copies: 2 + 1
T4 sequence 1: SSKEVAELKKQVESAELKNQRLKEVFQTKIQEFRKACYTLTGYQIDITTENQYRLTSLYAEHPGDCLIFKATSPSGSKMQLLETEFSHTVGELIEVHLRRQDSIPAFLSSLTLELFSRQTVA
T4 sequence 2: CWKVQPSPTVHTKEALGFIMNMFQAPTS

pMad1CTD (Mad1CTD pT716) = assay: SEC-MALS, Cdc20N with pMad1CTD; assay type: binding, human; details: 1:1.2 ratio Mad1CTD dimer to Cdc20N
Method: Size-exclusion chromatography coupled with multi-angle static light scattering (SEC-MALS), was performed using an Agilent 1200 series LC system with an online Dawn Helios ii system (Wyatt) equipped with a QELS + module (Wyatt) and an Optilab rEX differential refractive index detector (Wyatt). About 100 μl purified protein at ~3.0 mg/ml was auto-injected onto Superdex 75 or a Superdex 200 Increase 10/300 GL column (GE Healthcare) and run at 0.5 ml/min. The molecular masses were analysed with ASTRA 7.3.0.11 (Wyatt). Data were plotted using Prism 8.4.3 (GraphPad Software, Inc). Purified Cdc20^N and Cdc20^N mutants were incubated with Mad1^CTD wild-type or mutants at a 1:1.2 ratio of Mad1^CTD dimer to Cdc20^N.

[4] = molecular target: the molecule itself; assay: SEC + SEC-MALS; Mad1:C-Mad2 tetramer re-purified by SEC after adding excess Mad2; hexamer formed with an excess of Mad2LL; homogeneity confirmed by SEC-MALS

T1 sequence (Q13257 whole entry R133A): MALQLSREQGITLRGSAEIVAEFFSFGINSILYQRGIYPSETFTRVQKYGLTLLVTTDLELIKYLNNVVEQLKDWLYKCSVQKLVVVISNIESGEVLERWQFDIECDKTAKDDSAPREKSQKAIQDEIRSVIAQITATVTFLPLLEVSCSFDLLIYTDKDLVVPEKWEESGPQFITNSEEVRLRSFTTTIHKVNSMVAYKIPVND

Molecule: O-Mad2: open Mad2 with R133A mutation to prevent dimerisation
- time for O-Mad2 to C-Mad2 conversion (O-Mad2 R133A; absence of Cdc20MIM, peer review response): 24 h

B1: Q648A/R650A: mutation of the conserved QYRL motif within Mad1CTD, ref 33 (protein, UniProt Q9Y6D9 597-718, looked up, variant Q648A R650A)
chain: SSKEVAELKKQVESAELKNQRLKEVFQTKIQEFRKACYTLTGYQIDITTENAYALTSLYAEHPGDCLIFKATSPSGSKMQLLETEFSHTVGELIEVHLRRQDSIPAFLSSLTLELFSRQTVA
- binding of Cdc20 to Mad1 mutant (Cdc20): impaired binding to Cdc20
- binding of Cdc20 to Mad1 mutant (Cdc20; listed as Q648A and R650A): impaired binding of Cdc20^N to Mad1

B2: Mad1^CTD RLK/AAA: Mad1CTD RLK/AAA (residues 617-619) mutant, ref 33 (protein, UniProt Q9Y6D9 597-718, looked up, variant R617A L618A K619A)
chain: SSKEVAELKKQVESAELKNQAAAEVFQTKIQEFRKACYTLTGYQIDITTENQYRLTSLYAEHPGDCLIFKATSPSGSKMQLLETEFSHTVGELIEVHLRRQDSIPAFLSSLTLELFSRQTVA
- binding of Cdc20 to Mad1 mutant (Cdc20): abolished Cdc20 binding
- binding of Cdc20 to Mad1 mutant (Cdc20; listed as RLK/AAA): impaired binding of Cdc20^N to Mad1

B5: Mad1^485–718 (Mad1^485), unphosphorylated (domain or fragment, UniProt Q9Y6D9 485-718, looked up)
chain: SSAEQSFLFSREEADTLRLKVEELEGERSRLEEEKRMLEAQLERRALQGDYDQSRTKVLHMSLNPTSVARQRLREDHSQLQAECERLRGLLRAMERGGTVPADLEAAAASLPSSKEVAELKKQVESAELKNQRLKEVFQTKIQEFRKACYTLTGYQIDITTENQYRLTSLYAEHPGDCLIFKATSPSGSKMQLLETEFSHTVGELIEVHLRRQDSIPAFLSSLTLELFSRQTVA
notes: Mad1 residues 485-718; Construct His6-DoubleStrep-TEV-Mad1^485–718; two copies in the tetramer and hexamer with Mad2; also called Mad1 residues 485–718
- binding result [4]: binds

B6: Mad1^485–718 phosphorylated by Mps1 (pMad1^485) (domain or fragment, UniProt Q9Y6D9 485-718, looked up)
chain: SSAEQSFLFSREEADTLRLKVEELEGERSRLEEEKRMLEAQLERRALQGDYDQSRTKVLHMSLNPTSVARQRLREDHSQLQAECERLRGLLRAMERGGTVPADLEAAAASLPSSKEVAELKKQVESAELKNQRLKEVFQTKIQEFRKACYTLTGYQIDITTENQYRLTSLYAEHPGDCLIFKATSPSGSKMQLLETEFSHTVGELIEVHLRRQDSIPAFLSSLTLELFSRQTVA
modifications: phosphothreonine at 716 (predominant); lower abundant phosphorylation at Thr500, Ser538, Thr540, Thr550 and Ser551
notes: Mad1 residues 485-718; Predominantly one phosphate per monomer by intact mass; also called phosphorylated Mad1^485; phosphorylated Mad1^485–718
- binding result [4]: binds

Continued, in another order:

- O-Mad2 to C-Mad2 conversion (O-Mad2 R133A): cannot be achieved
Molecule: NLNGFDVEEAKILRLSGKPQNAPEGYQNRLKVLY [Cdc20^MIM]
- O-Mad2 to C-Mad2 conversion (O-Mad2 R133A; listed as Cdc20MIM): The majority of Mad2 remains in an open state; also recorded: nearly all of Mad2 remains in an open state

- binding by NMR chemical shift perturbation [1]: not Mad1^CTD
- binding by NMR chemical shift perturbation (pMad1CTD): binds pMad1^CTD
Molecule: PPARWQRKAKEAA [Cdc20 Box1, Box1 motif peptide of Cdc20]
- binding by NMR chemical shift perturbation (pMad1CTD; listed as pMad1CTD:Cdc20Box1): appeared stronger than that between pMad1CTD:Cdc20α1

- binding by NMR chemical shift perturbation (pMad1CTD): weak interaction; also recorded: weaker
Molecule: MAQFAFESDLHSLL [Cdc20 α1, N-terminal α1 helix peptide of Cdc20]

- Kd [2]: 23 µM
- Kd [3]: 18 µM
B3: Cdc20^N RRK/SSS mutant (Arg27, Arg30, Lys31 to Ser) (domain or fragment, human, UniProt Q12834 1-73, looked up)
chain: MAQFAFESDLHSLLQLDAPIPNAPPASWQSSAKEAAGPAPSPMRAANRSHSAGRTPGRTPGKSSSKVQTTPSK
notes: human Cdc20, residues 1-73; The purification (with tag cleavage) is told for Cdc20^N; likely the same for the mutant; source: site-directed mutant of the Cdc20^N construct, purified

- binding by SEC-MALS (pMad1CTD (Mad1CTD pT716)): abolished its interaction with pMad1^CTD
B4: Cdc20^N RRK/SSS: Cdc20N with Arg27, Arg30, Lys31 mutated to Ser (protein)
chain: MAQFAFESDLHSLLQLDAPIPNAPPASWQSSAKEAAGPAPSPMRAANRSHSAGRTPGRTPGKSSSKVQTTPSK
modifications: left off: His6, N-terminal, state not stated | MBP, N-terminal, state not stated
notes: Cdc20N with Arg27, Arg30, Lys31 mutated to Ser

Reference: PMC9605988, “Juxtaposition of Bub1 and Cdc20 on phosphorylated Mad1 during catalytic mitotic checkpoint complex assembly” (Nature Communications, 2022)
